T1: FcγRIIb extracellular domain with C-terminal His tag (human, UniProt P31994 43-217)
T1 construct: extracellular domain; Expressed in FreeStyle293 cells; analyte in the SPR assay; also called FcgRIIb; 2b
T1 sequence (looked up): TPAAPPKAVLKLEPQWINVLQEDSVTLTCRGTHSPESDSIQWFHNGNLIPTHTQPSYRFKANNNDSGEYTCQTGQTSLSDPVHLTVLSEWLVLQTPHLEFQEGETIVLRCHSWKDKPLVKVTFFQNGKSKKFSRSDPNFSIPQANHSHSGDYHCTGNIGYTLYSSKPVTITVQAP

B1: GpH7-A5/GpH7-B3 variant L234_16H/GpL16-k0 (He Ab) (antibody, human IgG1, kappa)
heavy 1: not shown
heavy 2: not shown
light: DIVMTQSPLSLPVTPGEPASISCQASESLVHSNRNTYLHWYLQKPGQSPQLLIYKVSNRFSGVPDRFSGSGSGTDFTLKISRVEAEDVGVYYCSQNTHVPPTFGQGTKVEIERTVAAPSVFIFPPSDEQLKSGTASVVCLLNNFYPREAKVQWKVDNALQSGNSQESVTEQDSKDSTYSLSSTLTLSKADYEKHKVYACEVTHQGLSSPVTKSFNRGEC
notes: He Ab: mutation in one H chain only
B2: GpH7-A5/GpH7-B3 variant L235_06M/GpL16-k0 (He Ab) (antibody, human IgG1, kappa)
heavy 1: not shown
heavy 2: not shown
light: B1 light
notes: as for B1
B3: GpH7-A5/GpH7-B3 variant L234_06M/GpL16-k0 (He Ab) (antibody, human IgG1, kappa)
heavy 1: not shown
heavy 2: not shown
light: B1 light
notes: as for B1
B4: GpH7-A5/GpH7-B3 variant L235_14T/GpL16-k0 (He Ab) (antibody, human IgG1, kappa)
heavy 1: not shown
heavy 2: not shown
light: B1 light
notes: as for B1
B5: GpH7-A5/GpH7-B3 variant L235_11K/GpL16-k0 (He Ab) (antibody, human IgG1, kappa)
heavy 1: not shown
heavy 2: not shown
light: B1 light
notes: as for B1
B6: GpH7-A5/GpH7-B3 variant L234_14T/GpL16-k0 (He Ab) (antibody, human IgG1, kappa)
heavy 1: not shown
heavy 2: not shown
light: B1 light
notes: as for B1
B7: GpH7-A5/GpH7-B3 variant L234_12R/GpL16-k0 (He Ab) (antibody, human IgG1, kappa)
heavy 1: not shown
heavy 2: not shown
light: B1 light
notes: as for B1
B8: GpH7-A5/GpH7-B3 variant L234_07I/GpL16-k0 (He Ab) (antibody, human IgG1, kappa)
heavy 1: not shown
heavy 2: not shown
light: B1 light
notes: as for B1
B9: GpH7-A5/GpH7-B3 variant L234_03V/GpL16-k0 (He Ab) (antibody, human IgG1, kappa)
heavy 1: not shown
heavy 2: not shown
light: B1 light
notes: as for B1
B10: GpH7-A5/GpH7-B3 variant L235_18N/GpL16-k0 (He Ab) (antibody, human IgG1, kappa)
heavy 1: not shown
heavy 2: not shown
light: B1 light
notes: as for B1
B11: GpH7-A5/GpH7-B3 variant L234_11K/GpL16-k0 (He Ab) (antibody, human IgG1, kappa)
heavy 1: not shown
heavy 2: not shown
light: B1 light
notes: as for B1
B12: GpH7-A5/GpH7-B3 variant L235_03V/GpL16-k0 (He Ab) (antibody, human IgG1, kappa)
heavy 1: not shown
heavy 2: not shown
light: B1 light
notes: as for B1
B13: GpH7-A5/GpH7-B3 variant L235_02A/GpL16-k0 (He Ab) (antibody, human IgG1, kappa)
heavy 1: not shown
heavy 2: not shown
light: B1 light
notes: as for B1
B14: GpH7-A5/GpH7-B3 variant L235_01G/GpL16-k0 (He Ab) (antibody, human IgG1, kappa)
heavy 1: not shown
heavy 2: not shown
light: B1 light
notes: as for B1
B15: GpH7-A5/GpH7-B3 variant L235_19Q/GpL16-k0 (He Ab) (antibody, human IgG1, kappa)
heavy 1: not shown
heavy 2: not shown
light: B1 light
notes: as for B1
B16: GpH7-A5/GpH7-B3 variant L235_13S/GpL16-k0 (He Ab) (antibody, human IgG1, kappa)
heavy 1: not shown
heavy 2: not shown
light: B1 light
notes: as for B1

What follows are binders tested against T1, FcγRIIb extracellular domain with … (assay: SPR (Biacore), relative binding, HeCon Ab = 100).

He/Con_2b | Binder
59.4 % of HeCon Ab (=100) | B1
81 % of HeCon Ab (=100) | B2
78.5 % of HeCon Ab (=100) | B3
46.8 % of HeCon Ab (=100) | B4
6.3 % of HeCon Ab (=100) | B5
62.5 % of HeCon Ab (=100) | B6
18.9 % of HeCon Ab (=100) | B7
80.9 % of HeCon Ab (=100) | B8
73.1 % of HeCon Ab (=100) | B9
54.9 % of HeCon Ab (=100) | B10
16.2 % of HeCon Ab (=100) | B11
66.4 % of HeCon Ab (=100) | B12
63 % of HeCon Ab (=100) | B13
35.4 % of HeCon Ab (=100) | B14
42.6 % of HeCon Ab (=100) | B15
48.2 % of HeCon Ab (=100) | B16

The binders below were run against T2, FcγRIa extracellular domain with C-terminal His tag (human, UniProt P12314 16-292) (assay: SPR (Biacore), relative binding, HeCon Ab = 100).
T2 construct: extracellular domain; Expressed in FreeStyle293 cells; analyte in the SPR assay; also called FcgRI; 1a
T2 sequence (P12314 16-292): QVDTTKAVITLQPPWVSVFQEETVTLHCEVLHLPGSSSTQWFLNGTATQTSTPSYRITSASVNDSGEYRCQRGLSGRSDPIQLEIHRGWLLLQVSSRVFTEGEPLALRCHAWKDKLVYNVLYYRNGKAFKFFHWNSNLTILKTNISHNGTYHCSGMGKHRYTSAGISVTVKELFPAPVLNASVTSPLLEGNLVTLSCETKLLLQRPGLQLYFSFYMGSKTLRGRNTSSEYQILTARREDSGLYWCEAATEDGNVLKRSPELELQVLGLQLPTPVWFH

He/Con_1a | Binder
94 % of HeCon Ab (=100) | B1
98 % of HeCon Ab (=100) | B2
104 % of HeCon Ab (=100) | B3
88.7 % of HeCon Ab (=100) | B4
79.9 % of HeCon Ab (=100) | B5
98.6 % of HeCon Ab (=100) | B6
91.8 % of HeCon Ab (=100) | B7
103 % of HeCon Ab (=100) | B8
104 % of HeCon Ab (=100) | B9
92.2 % of HeCon Ab (=100) | B10
91.8 % of HeCon Ab (=100) | B11
94.7 % of HeCon Ab (=100) | B12
92.2 % of HeCon Ab (=100) | B13
87.2 % of HeCon Ab (=100) | B14
94 % of HeCon Ab (=100) | B15
90.5 % of HeCon Ab (=100) | B16

The binders below were run against T2, FcγRIa extracellular domain with … (assay: SPR (Biacore); He/Con_1a divided by He/Con_2b (FcγRIa against FcγRIIb)).

He_1a/2b (Ia/IIb) [ratio] | Binder
1.58 | B1
1.21 | B2
1.32 | B3
1.9 | B4
12.7 | B5
1.58 | B6
4.86 | B7
1.27 | B8
1.43 | B9
1.68 | B10
5.67 | B11
1.43 | B12
1.46 | B13
2.46 | B14
2.21 | B15
1.88 | B16
